In paper PMC13541077 one finds stoichiometry N data, which are given here for 1 substance.

The target of the assay is recombinant soluble PRRSV-1 Olot/91 glycoprotein 3 ectodomain (sGP3) (PRRSV-1 (Betaarterivirus europensis), strain Olot/91). As to the kind of experiment: mass photometry; Refeyn MPOne; GP3 at 20 nM in filtered PBS, triplicate; calibrated with BSA, beta-amylase and thyroglobulin.

Broadly, the stoichiometry N is the number of molecules, sites or subunits per partner or assembly.

In the case of “recombinant soluble PRRSV-1 Olot/91 glycoprotein 3 ectodomain (sGP3) (domain or fragment)”, the stoichiometry N came out at 2.
